According to patent US20230313187A1, “MODIFICATIONS OF MAMMALIAN CELLS USING ARTIFICIAL MICRO-RNA TO ALTER THEIR PROPERTIES AND THE COMPOSITIONS OF THEIR PRODUCTS” (DNA TWOPOINTO INC., priority 2020, published 2023):
Values joined by “and” are separate entries in the source; they are usually repeats but may differ in a detail not shown here. Equal values may be shown once.

B1: SEQ ID NO: 204: four-hairpin amiRNA, two guides to Homo sapiens GMD mRNA (47, 49) and two to GFT mRNA (52, 50) (nucleic acid)
chain: ATCTGATCTTCTGAAGAAAATATATTTCTTTTTATTCATAGCTCTTAACTAGTGGTGATAGCAATGTCAGCAGTGCCTTAAAACATCTTGATTTCACAAAGTGAAGCCACAGATGTTTGTGAAATAAAGATGTTTTCAAGTAAGGTTGACCATACTCTACTCTAGTTATATTCTTTAGGCACGAATGTGTGTTTAAAAAAAATAAAAACTAGTGGTGATAGCAATGTCAGCAGTGCCTTATTACTTGTAAACACTGGTTCGTGAAGCCACAGATGGAACCAGTGTCTACAAGTAATCAAGTAAGGTTGACCATACTCTACTCTAGAGTTGTGTTTTAATGTATATTAATGTTACTAATGTGTTTACTAGTGGTGATAGCAATGTCAGCAGTGCCTTTCACTACTGTGCTGGCCCCGCGTGAAGCCACAGATGGCGGGGCCAGAACAGTAGTGACAAGTAAGGTTGACCATACTCTACTCTAGGTTATTTTTAGTATGATTCTGTAAAAATGAATTAATACTAACTAGTGGTGATAGCAATGTCAGCAGTGCCTTTGTTGTGTAACAACATAATTTGTGAAGCCACAGATGAAATTATGTTATTACACAACACAAGTAAGGTTGACCATACTCTACTCTAGTCAGTTTTATTGATAGTCTTTTCAGTATTATTGATAATCTT
B2: SEQ ID NO: 200: four-hairpin amiRNA, two guides to Cricetulus griseus GMD mRNA (35, 36) and two to GFT mRNA (41, 42) (nucleic acid)
chain: ATCTGATCTTCTGAAGAAAATATATTTCTTTTTATTCATAGCTCTTAACTAGTGGTGATAGCAATGTCAGCAGTGCCTTTAAACTTCTTGATTTCCCAAAGTGAAGCCACAGATGTTTGGGAAATAAAGAAGTTTACAAGTAAGGTTGACCATACTCTACTCTAGTTATATTCTTTAGGCACGAATGTGTGTTTAAAAAAAATAAAAACTAGTGGTGATAGCAATGTCAGCAGTGCCTTCCTCTTAGATCATATTCCAAGGTGAAGCCACAGATGCTTGGAATATAATCTAAGAGGCAAGTAAGGTTGACCATACTCTACTCTAGAGTTGTGTTTTAATGTATATTAATGTTACTAATGTGTTTACTAGTGGTGATAGCAATGTCAGCAGTGCCTTTCAAGTAAAATGAGTATGTGAGTGAAGCCACAGATGTCACATACTCCTTTTACTTGACAAGTAAGGTTGACCATACTCTACTCTAGGTTATTTTTAGTATGATTCTGTAAAAATGAATTAATACTAACTAGTGGTGATAGCAATGTCAGCAGTGCCTTCAATTAGTGGGATCACAACCCGTGAAGCCACAGATGGGGTTGTGATACCACTAATTGCAAGTAAGGTTGACCATACTCTACTCTAGTCAGTTTTATTGATAGTCTTTTCAGTATTATTGATAATCTT

Legend:
[1] = system: Homo sapiens GDP-Mannose 4,6-dehydratase (GMD) and GDP-fucose transporter 1 (GFT) mRNA; assay: Inhibition of antibody fucosylation in HEK cell pools, amiRNA directed toward GMD and GFT; assay type: cell-based; details: HEK pool
Description: A second multi-hairpin amiRNA gene was designed to target both Homo sapiens GDP-Mannose 4,6-dehydratase (GMD) with mRNA sequence given by SEQ ID NO: 8, and GDP-fucose transporter 1 (GFT) with mRNA sequence given by SEQ ID NO: 9. The multi-hairpin amiRNA, with nucleotide sequence SEQ ID NO: 204, comprised four hairpins; the first hairpin comprised guide strand sequence SEQ ID NO: 47 (complementary to the mRNA for human GMD, with sequence SEQ ID NO: 8), immediately followed by loop sequence SEQ ID NO: 241 and passenger strand sequence SEQ ID NO: 132; the second hairpin comprised guide strand sequence SEQ ID NO: 52 (complementary to the mRNA for human GFT, with sequence given by SEQ ID NO: 9), immediately followed by loop sequence SEQ ID NO: 241 and passenger strand sequence SEQ ID NO: 137; the third hairpin comprised guide strand sequence SEQ ID NO: 50 (complementary to the mRNA for human GFT, with sequence SEQ ID NO: 9), immediately followed by loop sequence SEQ ID NO: 241 and passenger strand sequence SEQ ID NO: 135 and the fourth hairpin comprised guide strand sequence SEQ ID NO: 49 (complementary to the mRNA for human GMD, with sequence given by SEQ ID NO: 8), immediately followed by loop sequence SEQ ID NO: 241 and passenger strand sequence SEQ ID NO: 134. Each passenger strand sequence was complementary to its corresponding guide strand sequence, except that the bases in the passenger strand sequences corresponding to the 5′ base of the guide strand and the twelfth base of the guide strand were changed to be non-complementary. The first and twelfth bases of guide strand with SEQ ID NO: 47 are T and G respectively, the corresponding bases in the corresponding passenger strand sequence SEQ ID NO: 132 are C and A respectively. […]
The multi-hairpin amiRNA sequences were placed to the 3′ of an open reading frame encoding a red fluorescent protein (with nucleotide sequence SEQ ID NO: 279) and followed by a rabbit globin polyadenylation sequence. […]

[2] = system: Cricetulus griseus GDP-Mannose 4,6-dehydratase (GMD), and GDP-fucose transporter 1 (GFT) mRNA; assay: Inhibition of antibody fucosylation in CHO with amiRNA targeting GMD and GFT; assay type: cell-based; details: 14-day fed batch
Description: A multi-hairpin amiRNA gene was designed to target both Cricetulus griseus GDP-Mannose 4,6-dehydratase (GMD), and GDP-fucose transporter 1 (GFT). […]
Multi-hairpin amiRNA sequence with SEQ ID NO: 200 was placed to the 3′ of an open reading frame encoding a red fluorescent protein (with nucleotide sequence SEQ ID NO: 279) and followed by a rabbit globin polyadenylation sequence. […]

Molecule | G0 + G1 % (area) ([1]; afucosylated antibody, 7-day transient culture) | Titer ([1]; antibody in culture supernatant, 7-day culture, listed as 204) | G0F + G1F (% area) ([1]; fucosylated antibody, 7-day transient culture, BDL=below detection limit, listed as 204) | G0 + G1 % (area) ([2]; afucosylated antibody heavy chain, CMV promoter) | G0F + G1F (% area) ([2]; fucosylated antibody heavy chain, BDL=below detection limit, listed as 200)
B1 | 100 % (area) | 126 mg/L and 120 mg/L | complete abolition of antibody fucosylation and BDL | – | –
B2 | – | – | – | 100 % (area) | no fucose was detectable by mass spectroscopy and BDL
